Experimental data taken from patent US20210253718A1, “FRIZZLED5 PROTEIN-BINDING AGENTS” (Modmab Therapeutics Corporation, priority 2016, published 2021).
Numbering of substitutions follows the chain as printed.

T1: FZD5 CRD (Homo sapiens, UniProt Q13467)
T1 construct: K29-T156; GPI anchor signal (C); expressed in transfected cells; host or cells: CHO cells, lentiviral pLenti-puro
T1 sequence (Q13467 29-156): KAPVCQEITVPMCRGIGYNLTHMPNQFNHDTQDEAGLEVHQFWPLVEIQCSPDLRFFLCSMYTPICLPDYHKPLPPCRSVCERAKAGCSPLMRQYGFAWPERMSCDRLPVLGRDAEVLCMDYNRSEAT

T2: FZD9 CRD (Homo sapiens, UniProt O00144)
T2 construct: G35-A161; GPI anchor signal (C); expressed in transfected cells; host or cells: CHO cells, lentiviral pLenti-puro
T2 sequence (O00144 35-161): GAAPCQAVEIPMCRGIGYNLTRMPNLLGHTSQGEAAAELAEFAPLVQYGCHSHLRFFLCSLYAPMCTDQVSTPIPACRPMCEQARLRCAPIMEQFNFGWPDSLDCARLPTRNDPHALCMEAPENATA

B1: Fab-2916: anti-FZD5 Fab with antibody variable region Fv-2916; CDR SEQ ID NOs: 35, 36, 55, 94, 131, 167 (antibody, V domains shown)
VH: EVQLVESGGGLVQPGGSLRLSCAASGFNISYSSIHWVRQAPGKGLEWVASIYPSYSYTYYADSVKGRFTISADTSKNTAYLQMNSLRAEDTAVYYCARYGYYGMDYWGQGTLVTVSS
VL: DIQMTQSPSSLSASVGDRVTITCRASQSVSSAVAWYQQKPGKAPKLLIYSASSLYSGVPSRFSGSRSGTDFTLTISSLQPEDFATYYCQQWYHYPYLITFGQGTKVEIK
B2: Fab-2914: anti-FZD5 Fab with antibody variable region Fv-2914; CDR SEQ ID NOs: 35, 36, 53, 92, 129, 162 (antibody, V domains shown)
VH: EVQLVESGGGLVQPGGSLRLSCAASGFNIYYSYMHWVRQAPGKGLEWVASIYPSSSSTSYADSVKGRFTISADTSKNTAYLQMNSLRAEDTAVYYCARGAMDYWGQGTLVTVSS
VL: DIQMTQSPSSLSASVGDRVTITCRASQSVSSAVAWYQQKPGKAPKLLIYSASSLYSGVPSRFSGSRSGTDFTLTISSLQPEDFATYYCQQWYYGSLITFGQGTKVEIK
B3: Fab-2915: anti-FZD5 Fab with antibody variable region Fv-2915; CDR SEQ ID NOs: 35, 36, 54, 93, 130, 166 (antibody, V domains shown)
VH: EVQLVESGGGLVQPGGSLRLSCAASGFNIYYYSMHWVRQAPGKGLEWVASIYSSYGYTSYADSVKGRFTISADTSKNTAYLQMNSLRAEDTAVYYCARGYHYYPYYSGLDYWGQGTLVTVSS
VL: B2 VL with W91A, G94H
B4: Fab-2918: anti-FZD5 Fab with antibody variable region Fv-2918; CDR SEQ ID NOs: 35, 36, 57, 96, 133, 169 (antibody, V domains shown)
VH: B1 VH with I29L, P53S, Y57S, Y59S, Y99F, Y102W, G103A, M104I
VL: B2 VL with W91A, Y92F, Y93G, G94A, I97F

Test system: HPAFII cells
Assay: Effect of anti-FZD5 Fabs on proliferation of pancreatic cancer cell lines (percent growth inhibition)
Type: cell-based, human
Conditions: Fab 2 μg/ml
Experimental: (§1) The effect of presently disclosed anti-FZD5 Fabs on proliferation of RNF43 loss-of-function mutant pancreatic cancer cell lines HPAFII, PATU8988S and ASPC-1; and on pancreatic cancer cell line RWP1, was tested at […] and 10 μg/ml.

| Molecule | percent growth inhibition, HPAFII 2 μg/ml [%] |
| --- | --- |
| B1 | 31.28 |
| B2 | −4.97 |
| B3 | −16.37 |
| B4 | 37.15 |

Same assay, conditions: Fab 10 μg/ml

| Molecule | percent growth inhibition, HPAFII 10 μg/ml [%] |
| --- | --- |
| B1 | 52.29 |
| B2 | 6.47 |
| B3 | −31.87 |
| B4 | 44.60 |

Test system: RWP1 cells
Assay: as above
Type: cell-based, human
Conditions: Fab 10 μg/ml
Experimental: as §1

| Molecule | percent growth inhibition, RWP1 10 μg/ml [%] |
| --- | --- |
| B1 | 30.61 |
| B2 | 78.98 |
| B3 | 45.04 |
| B4 | 39.24 |

Test system: ASPC-1 cells
Assay: as above
Type: cell-based, human
Conditions: Fab 10 μg/ml
Experimental: as §1

| Molecule | percent growth inhibition, ASPC-1 10 μg/ml [%] |
| --- | --- |
| B1 | 42.26 |
| B2 | 38.30 |
| B3 | 4.18 |
| B4 | 45.56 |

Test system: PATU8988S cells
Assay: as above
Type: cell-based, human
Conditions: Fab 10 μg/ml
Experimental: as §1

| Molecule | percent growth inhibition, PATU8988s 10 μg/ml [%] |
| --- | --- |
| B1 | −19.08 |
| B2 | −26.59 |
| B3 | −19.02 |
| B4 | −1.92 |

Test system: PATU8988S cells
Assay: as above
Type: cell-based, human
Conditions: Fab 2 μg/ml

| Molecule | percent growth inhibition, PATU8988s 2 μg/ml [%] |
| --- | --- |
| B1 | −25.67 |
| B2 | −15.14 |
| B3 | −6.43 |
| B4 | −0.86 |

Molecular target: T1, FZD5 CRD
Assay: Immunofluorescence of anti-FZD5 Fab binding to CHO cells overexpressing Frizzled CRD
Parameters: key: −: no binding; +: very weak binder; ++: weak binder; +++: good binder; ++++: very good binder
Conditions: not given
How it was run: (§2)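 Using immunofluorescence plus flow cytometry, we examine Fab binding to surface CRDs of individual Frizzled receptors, each expressed on CHO cells as a myc-GPI fusion from a lentiviral vector.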

| Immunofluorescence binding, Frizzled CRD overexpressed on CHO cells: FZD5 | Molecule |
| --- | --- |
| ++++ | B1 |
| ++++ | B2 |
| +++ | B3 |
| ++++ | B4 |

Molecular target: T3, FZD1 CRD (Homo sapiens, UniProt Q9UP38)
T3 construct: D112-P238; GPI anchor signal (C); expressed in transfected cells; host or cells: CHO cells, lentiviral pLenti-puro
Assay: as above
Parameters: key: −: no binding; +: very weak binder; ++: weak binder; +++: good binder; ++++: very good binder
Conditions: not given
How it was run: as §2

| Immunofluorescence binding, Frizzled CRD overexpressed on CHO cells: FZD1 | Molecule |
| --- | --- |
| ++++ | B1 |
| ++ | B2 |
| ++ | B3 |
| − | B4 |

Molecular target: T2, FZD9 CRD
Assay: as above
Parameters: key: −: no binding; +: very weak binder; ++: weak binder; +++: good binder; ++++: very good binder
Conditions: not given
How it was run: as §2

| Immunofluorescence binding, Frizzled CRD overexpressed on CHO cells: FZD9 | Molecule |
| --- | --- |
| − | B1 |
| − | B2 |
| − | B3 |
| − | B4 |

Test system: CHO cells not expressing Frizzled CRD
Assay: Flow cytometry of anti-FZD5 Fab binding to CHO cells not expressing Frizzled CRD (background)
Conditions: not given
Description: The binding of anti-FZD5 Fabs to cell surface-expressed Frizzled protein was further determined for each member of the Frizzled family via flow cytometry and immunofluorescence analysis of a panel of 10 CHO cell lines, each ectopically over-expressing the extracellular cysteine-rich domain (CRD) of a different Frizzled protein family member.

| Molecule | Median fluorescence, Frizzled CRD overexpressed on CHO cells: None |
| --- | --- |
| B1 | 4.22 |
| B2 | 4.37 |
| B3 | 4.49 |
| B4 | 3.13 |
